Reference: patent US20050008642A1

Target: IGF-IR on cells (HT29, NCI H322M human tumor cells; 3T3 cells transfected with IGF-IR) (human) (UniProt P08069)
Assay: cell-based or functional assay

- Akt/PKB phosphorylation in the absence of IGF-I (Western blot): > 5 nM
Substance: αIR3 (antibody)
